Measured values published in US12630600B2 (MEDIMMUNE LIMITED, priority 2022, dated 2026).
Starred links: 1 amine or outer side, 2 acyl side, 3 side chain; linkers in the order of their positions; H or OH if unused. Non-standard residues stand in square brackets, D forms with d. Groups on a side chain read outwards from the residue. No end group written: not given here. *: point of attachment. C20 diacid = O=C(O)CCCCCCCCCCCCCCCCCCC(=O)*; C18 diacid = O=C(O)CCCCCCCCCCCCCCCCC(=O)*; γGlu = O=C(O)[C@H](CCC(=O)[*:2])N[*:1]; αMeF = C[C@](N)(Cc1ccccc1)C(=O)O; AEEA = NCCOCCOCC(=O)O; Aib = CC(C)(N)C(=O)O

B1: Peptide 37 (peptide)
peptide: H[Aib]QGTFTSDVSK[αMeF]LDSK([AEEA-AEEA-γGlu-C18 diacid])RAEDFVQWLL[Aib]T-OH
modifications: N-terminus assumed
SMILES: CC(C)C[C@H](NC(=O)[C@H](Cc1c[nH]c2ccccc12)NC(=O)[C@H](CCC(N)=O)NC(=O)[C@@H](NC(=O)[C@H](Cc1ccccc1)NC(=O)[C@H](CC(=O)O)NC(=O)[C@H](CCC(=O)O)NC(=O)[C@H](C)NC(=O)[C@H](CCCNC(=N)N)NC(=O)[C@H](CCCCNC(=O)COCCOCCNC(=O)COCCOCCNC(=O)CC[C@H](NC(=O)CCCCCCCCCCCCCCCCC(=O)O)C(=O)O)NC(=O)[C@H](CO)NC(=O)[C@H](CC(=O)O)NC(=O)[C@H](CC(C)C)NC(=O)[C@](C)(Cc1ccccc1)NC(=O)[C@H](CCCCN)NC(=O)[C@H](CO)NC(=O)[C@@H](NC(=O)[C@H](CC(=O)O)NC(=O)[C@H](CO)NC(=O)[C@@H](NC(=O)[C@H](Cc1ccccc1)NC(=O)[C@@H](NC(=O)CNC(=O)[C@H](CCC(N)=O)NC(=O)C(C)(C)NC(=O)[C@@H](N)Cc1c[nH]cn1)[C@@H](C)O)[C@@H](C)O)C(C)C)C(C)C)C(=O)N[C@@H](CC(C)C)C(=O)NC(C)(C)C(=O)N[C@H](C(=O)O)[C@@H](C)O
B2: Peptide 38 (peptide)
peptide: H[Aib]QGTFTSDVSK[αMeF]LDSK([AEEA-AEEA-γGlu-C18 diacid])RAQDFVEWLL[Aib]T-OH
modifications: N-terminus assumed
SMILES: CC(C)C[C@H](NC(=O)[C@H](Cc1c[nH]c2ccccc12)NC(=O)[C@H](CCC(=O)O)NC(=O)[C@@H](NC(=O)[C@H](Cc1ccccc1)NC(=O)[C@H](CC(=O)O)NC(=O)[C@H](CCC(N)=O)NC(=O)[C@H](C)NC(=O)[C@H](CCCNC(=N)N)NC(=O)[C@H](CCCCNC(=O)COCCOCCNC(=O)COCCOCCNC(=O)CC[C@H](NC(=O)CCCCCCCCCCCCCCCCC(=O)O)C(=O)O)NC(=O)[C@H](CO)NC(=O)[C@H](CC(=O)O)NC(=O)[C@H](CC(C)C)NC(=O)[C@](C)(Cc1ccccc1)NC(=O)[C@H](CCCCN)NC(=O)[C@H](CO)NC(=O)[C@@H](NC(=O)[C@H](CC(=O)O)NC(=O)[C@H](CO)NC(=O)[C@@H](NC(=O)[C@H](Cc1ccccc1)NC(=O)[C@@H](NC(=O)CNC(=O)[C@H](CCC(N)=O)NC(=O)C(C)(C)NC(=O)[C@@H](N)Cc1c[nH]cn1)[C@@H](C)O)[C@@H](C)O)C(C)C)C(C)C)C(=O)N[C@@H](CC(C)C)C(=O)NC(C)(C)C(=O)N[C@H](C(=O)O)[C@@H](C)O
B3: Peptide 39 (peptide)
peptide: H[Aib]QGTFTSDVSK[αMeF]LDSK([AEEA-AEEA-γGlu-C18 diacid])RAQDFVRWLL[Aib]TE-OH
modifications: N-terminus assumed
SMILES: CC(C)C[C@H](NC(=O)[C@H](Cc1c[nH]c2ccccc12)NC(=O)[C@H](CCCNC(=N)N)NC(=O)[C@@H](NC(=O)[C@H](Cc1ccccc1)NC(=O)[C@H](CC(=O)O)NC(=O)[C@H](CCC(N)=O)NC(=O)[C@H](C)NC(=O)[C@H](CCCNC(=N)N)NC(=O)[C@H](CCCCNC(=O)COCCOCCNC(=O)COCCOCCNC(=O)CC[C@H](NC(=O)CCCCCCCCCCCCCCCCC(=O)O)C(=O)O)NC(=O)[C@H](CO)NC(=O)[C@H](CC(=O)O)NC(=O)[C@H](CC(C)C)NC(=O)[C@](C)(Cc1ccccc1)NC(=O)[C@H](CCCCN)NC(=O)[C@H](CO)NC(=O)[C@@H](NC(=O)[C@H](CC(=O)O)NC(=O)[C@H](CO)NC(=O)[C@@H](NC(=O)[C@H](Cc1ccccc1)NC(=O)[C@@H](NC(=O)CNC(=O)[C@H](CCC(N)=O)NC(=O)C(C)(C)NC(=O)[C@@H](N)Cc1c[nH]cn1)[C@@H](C)O)[C@@H](C)O)C(C)C)C(C)C)C(=O)N[C@@H](CC(C)C)C(=O)NC(C)(C)C(=O)N[C@H](C(=O)N[C@@H](CCC(=O)O)C(=O)O)[C@@H](C)O
B4: Peptide 4 (peptide)
peptide: HSQGS[αMeF]TSDVSK[αMeF]LDSK([AEEA-AEEA-γGlu-C18 diacid])AAQDFVQWIANT-NH2
modifications: N-terminus assumed
SMILES: CC[C@H](C)[C@H](NC(=O)[C@H](Cc1c[nH]c2ccccc12)NC(=O)[C@H](CCC(N)=O)NC(=O)[C@@H](NC(=O)[C@H](Cc1ccccc1)NC(=O)[C@H](CC(=O)O)NC(=O)[C@H](CCC(N)=O)NC(=O)[C@H](C)NC(=O)[C@H](C)NC(=O)[C@H](CCCCNC(=O)COCCOCCNC(=O)COCCOCCNC(=O)CC[C@H](NC(=O)CCCCCCCCCCCCCCCCC(=O)O)C(=O)O)NC(=O)[C@H](CO)NC(=O)[C@H](CC(=O)O)NC(=O)[C@H](CC(C)C)NC(=O)[C@](C)(Cc1ccccc1)NC(=O)[C@H](CCCCN)NC(=O)[C@H](CO)NC(=O)[C@@H](NC(=O)[C@H](CC(=O)O)NC(=O)[C@H](CO)NC(=O)[C@@H](NC(=O)[C@](C)(Cc1ccccc1)NC(=O)[C@H](CO)NC(=O)CNC(=O)[C@H](CCC(N)=O)NC(=O)[C@H](CO)NC(=O)[C@@H](N)Cc1c[nH]cn1)[C@@H](C)O)C(C)C)C(C)C)C(=O)N[C@@H](C)C(=O)N[C@@H](CC(N)=O)C(=O)N[C@H](C(N)=O)[C@@H](C)O
B5: Peptide 151 (peptide)
peptide: H[Aib]QGTFTSDVSK[αMeF]LDSK([AEEA-AEEA-γGlu-C20 diacid])RAQDFVRWLL[Aib]TE-OH
modifications: N-terminus assumed
SMILES: CC(C)C[C@H](NC(=O)[C@H](Cc1c[nH]c2ccccc12)NC(=O)[C@H](CCCNC(=N)N)NC(=O)[C@@H](NC(=O)[C@H](Cc1ccccc1)NC(=O)[C@H](CC(=O)O)NC(=O)[C@H](CCC(N)=O)NC(=O)[C@H](C)NC(=O)[C@H](CCCNC(=N)N)NC(=O)[C@H](CCCCNC(=O)COCCOCCNC(=O)COCCOCCNC(=O)CC[C@H](NC(=O)CCCCCCCCCCCCCCCCCCC(=O)O)C(=O)O)NC(=O)[C@H](CO)NC(=O)[C@H](CC(=O)O)NC(=O)[C@H](CC(C)C)NC(=O)[C@](C)(Cc1ccccc1)NC(=O)[C@H](CCCCN)NC(=O)[C@H](CO)NC(=O)[C@@H](NC(=O)[C@H](CC(=O)O)NC(=O)[C@H](CO)NC(=O)[C@@H](NC(=O)[C@H](Cc1ccccc1)NC(=O)[C@@H](NC(=O)CNC(=O)[C@H](CCC(N)=O)NC(=O)C(C)(C)NC(=O)[C@@H](N)Cc1c[nH]cn1)[C@@H](C)O)[C@@H](C)O)C(C)C)C(C)C)C(=O)N[C@@H](CC(C)C)C(=O)NC(C)(C)C(=O)N[C@H](C(=O)N[C@@H](CCC(=O)O)C(=O)O)[C@@H](C)O
B6: Peptide 20 (peptide)
peptide: H[Aib]HGS[αMeF]TSDVSK[αMeF]LDSK([AEEA-AEEA-γGlu-γGlu-C18 diacid])AARD[αMeF]VE[Aib]IANT-NH2
modifications: N-terminus assumed
SMILES: CC[C@H](C)[C@H](NC(=O)C(C)(C)NC(=O)[C@H](CCC(=O)O)NC(=O)[C@@H](NC(=O)[C@](C)(Cc1ccccc1)NC(=O)[C@H](CC(=O)O)NC(=O)[C@H](CCCNC(=N)N)NC(=O)[C@H](C)NC(=O)[C@H](C)NC(=O)[C@H](CCCCNC(=O)COCCOCCNC(=O)COCCOCCNC(=O)CC[C@H](NC(=O)CC[C@H](NC(=O)CCCCCCCCCCCCCCCCC(=O)O)C(=O)O)C(=O)O)NC(=O)[C@H](CO)NC(=O)[C@H](CC(=O)O)NC(=O)[C@H](CC(C)C)NC(=O)[C@](C)(Cc1ccccc1)NC(=O)[C@H](CCCCN)NC(=O)[C@H](CO)NC(=O)[C@@H](NC(=O)[C@H](CC(=O)O)NC(=O)[C@H](CO)NC(=O)[C@@H](NC(=O)[C@](C)(Cc1ccccc1)NC(=O)[C@H](CO)NC(=O)CNC(=O)[C@H](Cc1c[nH]cn1)NC(=O)C(C)(C)NC(=O)[C@@H](N)Cc1c[nH]cn1)[C@@H](C)O)C(C)C)C(C)C)C(=O)N[C@@H](C)C(=O)N[C@@H](CC(N)=O)C(=O)N[C@H](C(N)=O)[C@@H](C)O
B7: Peptide 140 (peptide)
peptide: H[Aib]QGTFTSDVSK[αMeF]LDTK([AEEA-AEEA-γGlu-C18 diacid])RAQDFVRWLLE[Aib]G-OH
modifications: N-terminus assumed
SMILES: CC(C)C[C@H](NC(=O)[C@H](Cc1c[nH]c2ccccc12)NC(=O)[C@H](CCCNC(=N)N)NC(=O)[C@@H](NC(=O)[C@H](Cc1ccccc1)NC(=O)[C@H](CC(=O)O)NC(=O)[C@H](CCC(N)=O)NC(=O)[C@H](C)NC(=O)[C@H](CCCNC(=N)N)NC(=O)[C@H](CCCCNC(=O)COCCOCCNC(=O)COCCOCCNC(=O)CC[C@H](NC(=O)CCCCCCCCCCCCCCCCC(=O)O)C(=O)O)NC(=O)[C@@H](NC(=O)[C@H](CC(=O)O)NC(=O)[C@H](CC(C)C)NC(=O)[C@](C)(Cc1ccccc1)NC(=O)[C@H](CCCCN)NC(=O)[C@H](CO)NC(=O)[C@@H](NC(=O)[C@H](CC(=O)O)NC(=O)[C@H](CO)NC(=O)[C@@H](NC(=O)[C@H](Cc1ccccc1)NC(=O)[C@@H](NC(=O)CNC(=O)[C@H](CCC(N)=O)NC(=O)C(C)(C)NC(=O)[C@@H](N)Cc1c[nH]cn1)[C@@H](C)O)[C@@H](C)O)C(C)C)[C@@H](C)O)C(C)C)C(=O)N[C@@H](CC(C)C)C(=O)N[C@@H](CCC(=O)O)C(=O)NC(C)(C)C(=O)NCC(=O)O

Target: human GLP-1 receptor (human, UniProt P43220)
Assay: cell-based or functional assay

B1 and B2 are within 1.5-fold of each other in “cAMP production EC50” value: 0.0686 nM for the first, 0.0756 nM for the second.

For B3, the “cAMP production EC50” value was 0.0761 nM.

Target: human glucagon receptor (human, UniProt P47871)
Assay: cell-based or functional assay

Going from B4 to H[Aib]QGTFTSDVSK[αMeF]LDSK([AEEA-AEEA-γGlu-C18 diacid])RAQDFVQWLL[Aib]TE-OH (not fully specified) [Peptide 150], the “cAMP production, hGluc-R EC50 (pM)” value falls from 1170 pM to 355 pM.

In the case of B5, the “cAMP production, hGluc-R EC50 (pM)” value is reported as 178 pM.

Target: human GLP-1 receptor (human, UniProt P43220)
Assay: cell-based or functional assay
Remark: another data set of the same source

First: B4
Second: H[Aib]QGTFTSDVSK[αMeF]LDSK([AEEA-AEEA-γGlu-C18 diacid])RAQDFVQWLL[Aib]TE-OH (not fully specified) [Peptide 150]
The “cAMP production, hGLP-1R EC50 (pM)” value of the first is higher: 240 pM for the first, 166 pM for the second.

First: B5
Second: B6
The “cAMP production, hGLP-1R EC50 (pM)” value of the first is lower: 111 pM for the first, 152 pM for the second.

In the case of B7, the “cAMP production, hGLP-1R EC50 (pM)” value is reported as 22.7 pM.

Target: human glucagon receptor (human, UniProt P47871)
Assay: cell-based or functional assay
Remark: another data set of the same source

First: B1
Second: B2
The “cAMP production EC50” value of the first is 6.2-fold higher: 2.75 nM for the first, 0.441 nM for the second.

With B3 the “cAMP production EC50” value was 0.194 nM.
